Measurements taken from paper PMC12331947, “Activation of AKT via a dual mechanism enhances the susceptibility of melanoma cells to glucose deprivation” (Cell Death & Disease, 2025).

Legend:
[1] = target: PDK1^9CS with Cys21 rescued (human) (UniProt O15530); assay: non-reducing gel and immunoblot; A375 cells in glucose-free medium for 3 h, with or without NAC (5 mM) or GSH (2.5 mM); PDK1 monomer and dimer bands under non-reducing conditions
[2] = target: T1, spleen tyrosine kinase (SYK) (Homo sapiens, UniProt P43405); assay: microscale thermophoresis (MST) with GFP-fused SYK in cell lysate; assay type: binding; set-up: SYK-EmerGFP (HEK293T lysate)
[3] = target: PDK1^9CS with Cys23 rescued (human) (UniProt O15530); assay: non-reducing gel and immunoblot; A375 cells in glucose-free medium for 3 h, with or without NAC (5 mM) or GSH (2.5 mM); PDK1 monomer and dimer bands under non-reducing conditions
[4] = target: T1, spleen tyrosine kinase (SYK); assay: microscale thermophoresis (MST) with GFP-fused SYK in cell lysate; supported by in vitro kinase activation of bacterially expressed SYK; assay type: binding; set-up: full-length SYK-EmerGFP (HEK293T lysate)
[5] = target: T1, spleen tyrosine kinase (SYK); assay: as above; assay type: binding; set-up: full-length SYK-EmerGFP (HEK293T lysate); remark: listed apart in the source
[6] = target: T2, endogenous PDK1 (human (endogenous in A375)), O15530; assay: non-reducing gel and immunoblot; A375 cells in glucose-free medium for 3 h, with or without NAC (5 mM) or GSH (2.5 mM); PDK1 monomer and dimer bands under non-reducing conditions; details: remark: other sources report otherwise
T2 chain: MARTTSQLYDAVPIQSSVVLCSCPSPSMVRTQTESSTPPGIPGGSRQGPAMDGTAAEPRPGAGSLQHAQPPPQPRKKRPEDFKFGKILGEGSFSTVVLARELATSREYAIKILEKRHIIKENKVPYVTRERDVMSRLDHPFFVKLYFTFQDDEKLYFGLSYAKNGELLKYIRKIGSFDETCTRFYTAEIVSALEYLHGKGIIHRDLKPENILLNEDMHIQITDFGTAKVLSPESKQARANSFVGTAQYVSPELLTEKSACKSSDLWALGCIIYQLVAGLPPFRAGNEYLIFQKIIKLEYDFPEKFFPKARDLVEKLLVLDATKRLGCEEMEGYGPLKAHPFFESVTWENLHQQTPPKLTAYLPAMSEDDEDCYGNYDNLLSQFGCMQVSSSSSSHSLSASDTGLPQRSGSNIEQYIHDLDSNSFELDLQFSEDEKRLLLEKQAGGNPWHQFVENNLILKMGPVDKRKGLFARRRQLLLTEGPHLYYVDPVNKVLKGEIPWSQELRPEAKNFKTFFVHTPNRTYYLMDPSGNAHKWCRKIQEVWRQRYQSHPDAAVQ

[7] = target: T3, PDK1 (exogenous, HA- or Flag-tagged) (human), O15530; assay: as above; details: remark: other sources report otherwise
T3 chain: T2 chain

Question: “PDK1^9CS with Cys21 rescued (from UniProt O15530 1-556) (enzyme)” was tested. Which stoichiometry N [1] did it give?
Answer: 2

Question: NC(=O)C1=CN([C@@H]2O[C@H](COP(=O)(O)OP(=O)(O)OC[C@H]3O[C@@H](n4cnc5c(N)ncnc54)[C@H](OP(=O)(O)O)[C@@H]3O)[C@@H](O)[C@H]2O)C=CC1 [NADPH] was tested. Which Kd [2] did it give?
Answer: 232 ± 16.5 µM

Question: With “PDK1^9CS with Cys23 rescued (from UniProt O15530 1-556) (enzyme)” as the molecule, how does the stoichiometry N [3] read?
Answer: 2

Question: NC(=O)c1ccc[n+]([C@@H]2O[C@H](COP(=O)([O-])OP(=O)(O)OC[C@H]3O[C@@H](n4cnc5c(N)ncnc54)[C@H](OP(=O)(O)O)[C@@H]3O)[C@@H](O)[C@H]2O)c1 [NADP^+] was tested. Which Kd [4] did it give?
Answer: 69.1 ± 16.1 µM

Question: Nc1ncnc2c1ncn2[C@@H]1O[C@H](COP(=O)(O)OP(=O)(O)O)[C@@H](O)[C@H]1O [ADP] was tested. Which Kd [5] did it give?
Answer: 42.4 ± 19.1 µM

B1: endogenous PDK1, O15530 1-556 (enzyme)
chain: T2 chain
Question: How did the stoichiometry N [6] turn out when B1 was run?
Answer: 2

B2: PDK1 (exogenous, HA- or Flag-tagged), O15530 1-556 (enzyme)
chain: T2 chain
Question: For B2, which stoichiometry N [7] is on record?
Answer: 2
